For assay [1], the target named is T1, recombinant human soluble CD4 (human, UniProt P01730 26-394, limits assumed).
T1 construct: Soluble form; also called sCD4
The experiment in a line: SPR. A general note: In SPR one partner is held on a chip, and binding of the other changes the refractive index at the surface.

Assay [2] addresses T2, human CD4 on cells (human, UniProt P01730 26-458). In words: cell-based or functional assay.
The target of assay [3] is T2, human CD4 on cells. In words: cell-based or functional assay. The source holds these as a separate data set.
Assay [4] addresses T1, recombinant human soluble CD4. In words: SPR (BIAcore), soluble CD4 on immobilized mAb, 25 C. How it is done:
(§1) The stoichiometry of binding of soluble CD4 to immobilized mAbs can be determined by saturation binding experiments on BIAcore (Pharmacia). Data for the association and dissociation phases of the SPR progress (FIG. 19) were analyzed directly using the integrated form of the rate equations as described in O'Shannessey et al., Anal. Biochem., 212: 467-468 (1993). […] Thus, the stoichiometry of CD4 binding was the same for all mAbs and close to the theoretical value of 2.0.

The target is the same in assay [5]. In words: SPR (BIAcore) saturation binding of soluble CD4 to immobilized mAb. How it is done: as §1
For the next assay, the target named is T3, human C1q (human, UniProt P02745 23-245; P02746 28-253; P02747 29-245).
T3 construct: also called Clq
The experiment in a line: C1q binding (summary table of effector functions).

The target of assay [6] is T4, chimpanzee CD4 on lymphocytes (chimpanzee, UniProt P16004 26-458).
T4 construct: whole, on cells
The experiment in a line: flow cytometry of blood of chimpanzees dosed at 1.5 mg/kg. How it is done: Six chimpanzees were examined for depletion of CD4^+ T cells and/or modulation of the CD4 receptor from the cell surface after infusions of increasing doses of antibody CE9γ4PE, up to 15 mg/kg. Peripheral blood samples were taken from each chimpanzee three weeks and two weeks prior to the start of the study to establish baseline levels for CD4^+ T cells. In addition to CD4^+ cells, CD3^+ and CD8^+ cell levels were also measured by flow cytometry. […] By subtraction of CD8^+ counts from total CD3^+ counts a theoretical value for the number of CD4^+ T cells could be calculated. By comparing this value with the CD4^+ cells measured suing OKT4, CD4 receptor modulation could be distinguished from CD4^+ cell depletion.
For orientation: Flow cytometry measures light scatter and fluorescence of single cells or particles in a stream.

T3 sequence (P02745 23-245 limits assumed, chain 1 of 3): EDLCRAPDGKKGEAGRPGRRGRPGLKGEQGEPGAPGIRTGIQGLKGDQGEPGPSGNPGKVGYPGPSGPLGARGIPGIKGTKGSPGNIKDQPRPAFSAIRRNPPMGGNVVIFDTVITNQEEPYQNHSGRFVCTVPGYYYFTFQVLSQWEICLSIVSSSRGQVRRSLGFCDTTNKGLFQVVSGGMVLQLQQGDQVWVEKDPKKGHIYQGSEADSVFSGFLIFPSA
T3 sequence (P02746 28-253 limits assumed, chain 2 of 3): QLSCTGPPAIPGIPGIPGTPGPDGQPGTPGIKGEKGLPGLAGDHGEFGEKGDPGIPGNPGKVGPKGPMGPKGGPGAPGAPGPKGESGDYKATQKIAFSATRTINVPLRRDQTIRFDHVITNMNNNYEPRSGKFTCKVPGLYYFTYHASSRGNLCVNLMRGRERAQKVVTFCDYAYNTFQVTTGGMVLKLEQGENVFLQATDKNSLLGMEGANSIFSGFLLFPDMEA
T3 sequence (P02747 29-245 limits assumed, chain 3 of 3): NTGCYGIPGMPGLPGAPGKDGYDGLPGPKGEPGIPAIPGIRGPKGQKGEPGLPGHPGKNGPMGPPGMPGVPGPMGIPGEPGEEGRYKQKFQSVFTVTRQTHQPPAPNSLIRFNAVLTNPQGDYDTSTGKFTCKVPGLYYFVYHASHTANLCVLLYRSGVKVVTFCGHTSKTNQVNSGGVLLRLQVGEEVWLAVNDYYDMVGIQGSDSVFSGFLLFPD
T4 sequence (P16004 26-458): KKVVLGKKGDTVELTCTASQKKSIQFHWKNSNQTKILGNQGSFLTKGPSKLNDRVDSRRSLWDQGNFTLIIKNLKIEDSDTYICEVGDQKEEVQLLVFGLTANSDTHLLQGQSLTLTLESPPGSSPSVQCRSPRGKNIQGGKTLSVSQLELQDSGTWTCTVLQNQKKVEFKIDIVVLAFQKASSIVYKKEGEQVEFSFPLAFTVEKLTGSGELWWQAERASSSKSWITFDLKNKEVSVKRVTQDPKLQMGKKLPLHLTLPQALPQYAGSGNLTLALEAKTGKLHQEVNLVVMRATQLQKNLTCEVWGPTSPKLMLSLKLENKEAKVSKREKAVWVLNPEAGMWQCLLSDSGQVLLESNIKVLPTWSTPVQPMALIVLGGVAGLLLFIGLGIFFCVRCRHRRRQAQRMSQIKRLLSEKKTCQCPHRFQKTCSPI

B1: CE9.1, monkey/human chimeric anti-CD4 monoclonal antibody (cynomolgus variable domains, human gamma 1 / lambda constant regions) (antibody)
heavy: not shown
light: SYELSQPRSVSVSPGQTAGFTCGGDNVGRKSVQWYQQKPPQAPVLVIYADSERPSGIPARFSGSNSGNTATLTISGVEAGDEADYYCQVWDSTADHWVFGGGTRLTVLGQPKAAPSVTLFPPSSEELQANKATLVCLISDFYPGAVTVAWKADSSPVKAGVETTTPSKQSNNKYAASSYLSLTPEQWKSHRSYSCQVTHEGSTVEKTVAPTECS
notes: domain: gamma 1 constant region; the entries may be DNA and may hold a leader; also called mAb CE9.1; monkey/human recombinant antibody (ATCC No. 69030)
By Kd is commonly meant the concentration at which binding is half-saturated. Take B1: the Kd in assay [1] was 1 nM. Also, the “inhibition of human MLR (proliferation and IL-2 production), IC50” value with human CD4 on cells [2] lay within 0.01 to 0.03 mg/L. In the assay with human CD4 on cells [3], the “MLR IL-2 Production (IC50)” value is 0.005 mg/L and the “MLR Proliferation (IC50)” value was determined as 0.02 mg/L. Also, the Kd in assay [4] was 0.99 nM. Also, the “BIAcore Stoichiometry” value in assay [5] was found to be 1.56 moles CD4/mole mAb.

B2: CE9γ4E, chimeric anti-CD4 antibody with human gamma 4 constant domain carrying the E modification (L236E) (antibody, human IgG4, lambda)
heavy: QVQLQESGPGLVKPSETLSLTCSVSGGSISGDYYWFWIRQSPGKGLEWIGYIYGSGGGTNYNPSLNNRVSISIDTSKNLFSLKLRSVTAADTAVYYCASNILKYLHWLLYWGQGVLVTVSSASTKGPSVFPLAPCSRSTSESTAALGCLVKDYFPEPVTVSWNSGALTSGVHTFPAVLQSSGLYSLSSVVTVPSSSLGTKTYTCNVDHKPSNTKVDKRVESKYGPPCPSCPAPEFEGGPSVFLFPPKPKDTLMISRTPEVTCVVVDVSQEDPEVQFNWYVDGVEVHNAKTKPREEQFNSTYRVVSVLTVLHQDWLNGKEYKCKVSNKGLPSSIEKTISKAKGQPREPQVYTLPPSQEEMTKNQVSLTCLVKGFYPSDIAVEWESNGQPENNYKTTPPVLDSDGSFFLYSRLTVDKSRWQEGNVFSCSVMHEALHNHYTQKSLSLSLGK
light: B1 light
notes: IgG4 (L236E; 248 Kabat numbering) lambda; also called CE9γ4E(G4E); CE9γE
Consider B2, for which, in the assay with human CD4 on cells [3], the “MLR IL-2 Production (IC50)” value came to 0.01 mg/L and the “MLR Proliferation (IC50)” value came out at 0.02 mg/L. In assay [4], the Kd came to 1.43 nM. For the same molecule, the “BIAcore Stoichiometry” value in assay [5] came out at 1.72 moles CD4/mole mAb.

B3: CE9γ4PE, chimeric anti-CD4 antibody with human gamma 4 constant domain carrying the P and E modifications (S229P, L236E) (antibody, human IgG4 S228P, lambda)
heavy: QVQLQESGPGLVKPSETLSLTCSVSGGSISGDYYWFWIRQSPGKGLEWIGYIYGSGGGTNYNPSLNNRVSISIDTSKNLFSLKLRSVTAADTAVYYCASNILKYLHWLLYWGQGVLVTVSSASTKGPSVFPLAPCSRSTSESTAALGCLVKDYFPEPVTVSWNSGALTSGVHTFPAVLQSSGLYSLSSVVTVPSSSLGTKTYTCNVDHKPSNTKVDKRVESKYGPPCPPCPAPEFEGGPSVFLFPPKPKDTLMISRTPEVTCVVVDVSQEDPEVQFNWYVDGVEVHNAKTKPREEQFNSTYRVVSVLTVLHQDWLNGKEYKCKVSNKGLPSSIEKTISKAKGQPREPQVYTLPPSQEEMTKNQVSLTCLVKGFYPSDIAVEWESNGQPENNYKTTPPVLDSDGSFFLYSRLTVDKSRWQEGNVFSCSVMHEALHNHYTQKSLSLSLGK
light: B1 light
notes: IgG4 (S229P, L236E; 241 and 248 Kabat numbering) lambda, expressed in CHO; also called CE97PE(G4PE); CE9-4PE
As for B3, the “MLR Proliferation (IC50)” value in the assay with human CD4 on cells [3] is 0.02 mg/L. Moreover, the binding result with human C1q was “no binding”; in assay [6] it was “binds”. Besides, the Kd in assay [4] came out at 1.09 nM.

B4: CE9γ4, chimeric anti-CD4 antibody with human gamma 4 constant domain (antibody, human IgG4, lambda)
heavy: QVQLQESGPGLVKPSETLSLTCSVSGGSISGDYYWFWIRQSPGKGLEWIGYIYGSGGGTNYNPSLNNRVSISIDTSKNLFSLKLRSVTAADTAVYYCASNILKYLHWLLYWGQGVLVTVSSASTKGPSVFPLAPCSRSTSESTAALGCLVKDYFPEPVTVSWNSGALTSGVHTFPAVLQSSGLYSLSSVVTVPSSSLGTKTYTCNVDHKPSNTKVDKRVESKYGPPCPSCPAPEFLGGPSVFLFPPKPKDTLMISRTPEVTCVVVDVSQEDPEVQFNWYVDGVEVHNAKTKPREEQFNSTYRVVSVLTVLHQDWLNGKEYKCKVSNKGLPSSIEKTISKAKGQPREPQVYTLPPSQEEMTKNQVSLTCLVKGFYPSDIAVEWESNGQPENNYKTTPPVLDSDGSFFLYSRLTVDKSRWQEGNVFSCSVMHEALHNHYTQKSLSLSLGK
light: B1 light
notes: IgG4 lambda; also called CE9γ4(G4); anti-CD4 (G4, L, Oz-)
For B4, in the assay with human CD4 on cells [3], the “MLR IL-2 Production (IC50)” value came to 0.005 mg/L and the “MLR Proliferation (IC50)” value stood at 0.02 mg/L. For the same molecule, the Kd in assay [4] amounted to 1.34 nM. Moreover, the “BIAcore Stoichiometry” value in assay [5] was found to be 1.61 moles CD4/mole mAb.

B5: CE9γ4λK, chimeric anti-CD4 antibody with human gamma 4 heavy chain constant domain and human kappa light chain constant region (antibody)
heavy: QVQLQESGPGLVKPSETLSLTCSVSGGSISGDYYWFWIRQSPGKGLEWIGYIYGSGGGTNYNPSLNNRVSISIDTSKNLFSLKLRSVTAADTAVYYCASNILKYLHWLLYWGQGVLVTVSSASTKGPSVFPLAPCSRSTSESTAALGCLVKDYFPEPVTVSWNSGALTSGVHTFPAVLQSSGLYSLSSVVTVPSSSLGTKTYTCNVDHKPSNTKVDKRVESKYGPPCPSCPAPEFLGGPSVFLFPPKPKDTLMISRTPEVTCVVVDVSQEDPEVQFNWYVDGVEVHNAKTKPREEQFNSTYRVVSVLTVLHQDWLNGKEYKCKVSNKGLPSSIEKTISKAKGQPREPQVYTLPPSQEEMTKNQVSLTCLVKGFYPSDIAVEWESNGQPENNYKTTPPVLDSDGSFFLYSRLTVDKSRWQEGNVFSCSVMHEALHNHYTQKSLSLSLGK
light: SYELSQPRSVSVSPGQTAGFTCGGDNVGRKSVQWYQQKPPQAPVLVIYADSERPSGIPARFSGSNSGNTATLTISGVEAGDEADYYCQVWDSTADHWVFGGGTRLTVLG
notes: also called CE9γ4XK; CE9γ4K
For the molecule B5, the Kd in assay [4] was 1.08 nM. For the same molecule, in assay [5], the “BIAcore Stoichiometry” value stood at 1.67 moles CD4/mole mAb.

The values are drawn from US7452534.
